Laboratory results published in the DeepSol protein solubility set.

Test: soluble on expression in E. coli; label from the status in PepcDB or PDB records

With “GSHMTRETERFPAREFQRDLLDWFARERRDLPWRKDRDPYKVWVSEVMLQQTRVETVIPYFEQFIDRFPTLEALADADEDEVLKAWEGLGYYSRVRNLHAAVKEVKTRYGGKVPDDPDEFSRLKGVGPYTVGAVLSLAYGVPEPAVDGNVMRVLSRLFLVTDDIAKPSTRKRFEQIVREIMAYENPGAFNEALIELGALVCTPRRPSCLLCPVQAYCQAFAEGVAEELPVKMKKTAVKQVPLAVAVLADDEGRVLIRKRDSTGLLANLWEFPSCETDGADGKEKLEQMVGEQYGLQVELTEPIVSFEHAFSHLVWQLTVFPGRLVHGGPVEEPYRLAPEDELKAYAFPVSHQRVWREYKEWASGVRPPP” as the sequence, how does the “soluble on expression in E. coli” value read?
Its value is “soluble”.

For “MGPNHPCGYLPGRDARFTYVSPAYPLSPQSYRGLLEEGFRRSGNWVYRPCCIGCSACLPVRLPVHDFRLTRSHRRVIKRNADIDIRVSVARFDERQFQLYVRYLAARHPLEHHHHHH”, which “soluble on expression in E. coli” value is on record?
The value was “not soluble”.

For “MSLKNVLTGLFLLILATACSEEEPQTITPVPFNQVTLTDGFWKNRMQTEINVTVPFSVEQSAPAVERFRRCAAFLAGDSTALPETHRFISSDLYKVMEGVSYSLMIQPNKELEEFMDRVADLITASQKDDGYLYISHICGNPDPREMGEKPYSWVVHSHELYNVGHLYEAAVAYYQATGKDKLLNVAIKSAKHVNKVFFEGGDPNYNGGKPINQAPGHEEIELALCKLYRVTNDPLYLDMAKKFLEIRGVTYRPEGEGVMAPTYAQQHAPVKEQTEAVGHAVRAAYLYTAMAQVDALTGLNDYTKALNSIWTNLVTTRMHITGGLGAVEGMEGFGAPYELPNLTAYNETCAAVANVFFNYGMYLDSGDAKFLDIAELSLFNNSLAGINLHGDRFFYVNPLEADGVRRFNHGNGGRAKWFGCACCPPNISRLILQVPGYMYAYSKDRVYLTLYGGSQTTIPLEGTRVKLEQTSAYPFDGKVRLTVQPEKGSKFSVCMRIPTWARSDEFVPGGLYPYKQPKQAEVELSVNGQKTDFKMEKGFAVIKRDWKPGDVVELNIPMPVRFVDCIPEVSENIGKTAVTRGPLVYCAEEVDNAGPVQRLYLGDTNEAQAKVANISSGVLQGLERITLPGMEKKVGGITSREITMIPYYAWCNRGDNRTMLVWLNEEASTASIGQQTMAYLRNVKGVNASSVAGGKNISVRALCDGKVSESSADKLTEQWVSEGSGKQWVQVDFREPFLLNSLSVYWLDDQDKITVPSGWSVEYKSDAGWTPLELYVTDSYQMGTDRFNVVHPSGSLEVESVRILIEPQKGKSIGVSEIRFEEGHHHHHH”, which “soluble on expression in E. coli” value is on record?
Its value is “soluble”.

Which “soluble on expression in E. coli” value does the source give for “MGSDKIHHHHHHMKDVMFYFEIHQPFRLRPTNLYDVKSEQNVFWDEKNEEIFRRVAERSYIPATRNLMEYGIKSSFSITGTAVEQALMYNTKVIDAIDDYVKSGLCEMLSETYYHSLASIWNYDEFKRQVDMHRDLMKRIFNVVPKVFRNTELIYDDRIAEMVKRMGFTSIITEGTDSIVKDHSPNYRYASPSGLNLYLRNYVMSDNISFRFSNTKWKDYPLTADKYAKWINESEGDMVNLFMDYETFGEHQTQETGIFDFMKYLPVYFRDYGIETITISEAEKRHRVKDVLSIPETISWADTRRDLSAWLENEMQIDTFDRIKKCREKAGRLWGYLQTSDIIYYMSIGLEQDFTVHEYFNPYKSPYLAFIYTNYALDKICGSSYGKNEI” here?
Its value is “not soluble”.

For “MSIYLTAMKNYLEQQNSLNSSKPKALILVAGATGGAQEGFQALERLRESYEIIVVASQAALDLYGEENLKSLTGTAKIYQGKEFKIYDFLKVVTIVFLPVVSSNLVGKLAHGIYDEPLASLIFHAKLAGKPVIGVVDGALPDGDGFKSRGFTNPPPGLVKLINENIEKLRAQEIYLYKGKTILEKLSPYLGPQTAETSVVSSKTGVTLNKRVITREDLLELANQTITVSQKTIITDLAREYAVQNNIKINFAE”, which “soluble on expression in E. coli” value is on record?
Its value is “not soluble”.

For “KTDDPRFKIYKLAYSAFLSRITVKDVIWNKDKGIKLMDGYYWDFINDPHLLVAGGTGGGKTVLLRSILRCLAEIGVCDICDPKRADFVTMSDLSAFEGRIAFEKADIIEKFENAVTIMFARYDFVRNEMKRLGHKDMKKFYDYGLEPYFFVCDEYNALMSSLSYQEREIVDNAFTQYILLGRQVGCNAIIAMQKPSA”, which “soluble on expression in E. coli” value is on record?
Its value is “not soluble”.

Which “soluble on expression in E. coli” value does the source give for “MSLTAAGRWRDVEMMAYKQDDAAPFRDVTRQLLFSDPRLACEWRYFEVAAGGYSTLEKHDHVHGVMIHRGKGQCLVGHHVSDVAVGDLVFIPPQTWHQFRANAGDVLGFLCLVNAERDREGHHHHHH” here?
The value was “not soluble”.

For “MKKNDLSALQENCFCFCDEEISREAPFQVPIDFPEGFKVDTAEASAAVTWSTDNLSCISEPCLIQTGPEPEDIGVRYAVRVQGTITLLVSVSPVRNQYGQGDGAVSVIHTEEIDQVVYYAAQSGRCPDFSQITVEDLLIVPPFYGSPLTVAGTLVLPPSPDPQSYVFTANTGDSTVSVIDADLNTVVKTIPFSDVPTNLGVTFDKAFTYVLHGNTNLVSVIDNKTLTIINTITVGGGPRKIEFDPTDEFAYVMAAGSIYVINTASQSVIDVIPIPGALDFALDPNGQYVYTANGSSWSVDKYDVNTGQLVESIIDTFEFPSLITTPYAGNFAYVLNGELWPKGVTEISLSPLSRGGDFSRLFETLRTIVFSLDSTRAYFLEPYSEPFLINNLYVVNTARQRIIANVSLPGAFDLAVTPDKQYIYAAQPNDNAVTVYRTSDYTAVTVIPVGAGPSAIAMLEHHHHHH”, which “soluble on expression in E. coli” value is on record?
The value was “not soluble”.

Which “soluble on expression in E. coli” value does the source give for “MSFFDKVKGALTSGREELTRQVGRYKNKKFMQGTVAVCARIAVASDGVSSEEKQKMIGFLRSSEELKVFDTAEVIEFFNKLVTSFDFDLEIGKGETMKYILALKDQPEAAQLALRVGIAVAKSDGNFDDDEKSAVREIARSLGFDPAEFGLLE” here?
Its value is “soluble”.

With “AHHHHHHGSLSERELERYDRQIMIFGIEGQEKLKKANVAVVGVGGLGSPVAYYLAAAGVGTILLIDEQTPELSNLNRQILHWEEDIEKNPKPISAKWKLERFNSNIKIETFVGRLSEENIDEVLSGVDVIVDCLDNFETRYLLDDFAHKKGIPLVHGAVEGFYGQVTTIIPGKTKRLREIFPKVKKKGKFPIVGATAGVIGTIQASEVIKLITGYGEPLANKLLIIDLANNTYEIIEI” as the sequence, how does the “soluble on expression in E. coli” value read?
The value was “soluble”.

With “MGGSHHHHHHGMASALAAKVDLSTSTDWKEAKSFLKGLSDKQREEHYFCKDFVRLKKIPTWKEMAKGVAVKVEEPRYKKDKQLNEKISLLRSDITKLEVDAIVNAANSSLLGGGGVDGCIHRAAGPLLTDECRTLQSCKTGKAKITGGYRLPAKYVIHTVGPIAYGEPSASQAAELRSCYLSSLDLLLEHRLRSVAFPCISTGVFGYPCEAAAEIVLATLREWLEQHKDKVDRLIICVFLEKDEDIYRSRLPHYFPVA” as the sequence, how does the “soluble on expression in E. coli” value read?
Its value is “not soluble”.

Which “soluble on expression in E. coli” value does the source give for “MTKKKVYNKRKRKEASIRVLEAIREKRKQQLAENARLEAEQAEQDVAPEPIDVQDPVINAGNIVEDAEPLNVNPSPPQPRKFNFRVANLEIARQAKISQNLMKTSETASTSSPVRQQVKTEIVPRVSQRTIVKTQALPRVNAPVLSSVPAKNPLPPKFVYINTAGLKRKRDDDKNTPSTSNSITLNPSSRGDQTQFIVHLQRTIERLEKEKAALTEKLTMREDEIKVFSVEFVNIQKENVKLMKENKAKESQISNQSIQVRNSWKFADLFKKELQKSRKDVSEVKWKIDKIEKKVGIKKPTPRKKPDVKLINPEDISLMSDRTQDGEDSSDFGSPLAKYLKPDQPSTSSACYGKPFYFESTSSSSRKPITASPGPPGRTQISDQLNTGEVRYVVNSGKPFNFSSESNSRNLKLIPGYIKRPEFRYIKPEGFTSASYKAQSEGMSSFLKTGSSATPENSKKSAHFDMPDISSTPYKSHVVVESDEMNSSSSTIGGFESEKKDNGALGSQKSPMPDIATALHNIFDSKEVQSSSSTTGSSAPPENSKKSDHFDMPDISSTLYRSRVEPISSSSSGSTSTSAPRYVPKPIAQPARYAIPSPGALNALRRPPEWKGQRRHAPSYVKSRESVTFRGCSRFPVTSPHFAKAHLEPVTDGKDDSKIVKYRFVPKRPDFDGEREHKK” here?
The value was “not soluble”.

Which “soluble on expression in E. coli” value does the source give for “MGSDKIHHHHHHMSIGIVIASHGEFAAGIKQSGSMIFGEQEKVQVVTFMPSEGPTDLHAKIEAAIATFDAEDEVLVLADLWSGSPFNQASAVMGENPERKIAIITGLNLPMLIQAYTERMMDASAGVDKVVANIMKEAKGGIKVLPEELQPAEETAVAAAPAAVQGAIPEGTVIGDGKIKINLARIDSRLLHGQVATAWTPDSRANRIIVVSDTVSKDELRKKLIEQAAPTGVKANVIPIKKMIEVAKDPRFGDTKALLLFETPQDALATIEGGVPIETLNVGSMAHSTGKTMLNKVLSMDKDDVATFEKLRDLGVKFDVRKVPADSKSDLFGLINKADVQ” here?
The value was “not soluble”.

Which “soluble on expression in E. coli” value does the source give for “MGSDKIHHHHHHMVVNLTYMLNTEDRKFIIDSVKKGYKVTELARMFNVTPRRIQQILHESEMPESAKDSELTDEEKKFIDDLWDRYRIGSRTIYYLLRSKGLNVSYYKIYNYMKMKRMVQIKDNALIVNGKKAEPPLSTVLLDYHQKNFNDQYAIFCVDMTTKKILSYAESVKITSDVVSGVL” here?
Its value is “not soluble”.

For “MSLRDTVLVVDDEPDSLRFLADTLEGAGIRVLVAISGDAALDVLQHVEPDLILMDGVMPGRSGFETTACIKARPELAHVPVVFMTGLHDDEHVVRGFEVGGVDYLRKPVNVQELLARVRVHVGNARAIQAGAAGLDATGRLMMATDLQGGLLWCTPLAERAIARACPGWSRDAGALPDALREPVRKMLGRGAAQSGSVKVEQVDGTMELVVIAQYRGQEVLIRVNELNPKADIALLQQKLGLTDREAEVLLWTSYGKSNATISEVLAISPRTVQKHLERIYEKLGIETRAAAAAVAIKALGNEGHHHHHH”, which “soluble on expression in E. coli” value is on record?
The value was “soluble”.

Which “soluble on expression in E. coli” value does the source give for “MVKEFNTQTELSVRLEALWAVLSKDFITVVPKVLPHIVKDVQLIEGDGGVGTILIFNFLPEVSPSYQREEITEFDESSHEIGLQVIEGGYLSQGLSYYKTTFKLSEIEEDKTLVNVKISYDHDSDIEEKVTPTKTSQSTLMYLRRLERYLSNGSA” here?
The value was “soluble”.

With “MAHHHHHHMPSGDAMIPRVCRTFSDAFASDEATAKEQGKKYWISRVLGSGATGTVLCAKRRSDGQSFAVKVVEMEGMSEADKNRAQAEVQCLLNCDFFSILKCHEDFAKKDPADEENVLMVALVLDYANAGDLRQEIKNRAKAARAFREHEAGLLFIQVLLAIHHVHSRHMIHRDIKTANILLCSNGLVKLGDFGFSKMYSATVSGDVGKTFCGTPYYVAPEIWRRKPYSKKADIFSLGVLLYELLTLKRPFDGENMQEVMQKALAGRYDPLPPTISPEMTEVVTSLLCGDPHARPSSSKLLNMPICKLFVSGLLEIVQTQPSFAGPLRDTISTHIQSVKQSLKEERRVTVRQMEESQSAAAASTTILEGATPMGSVGDLTLYEGIVKKQSGDLAWKRRYLCIRGALEEGERLDVGRMPKFKSLDLVLAVSKETMRQQCITTPFSELEDVFPVASKYTGSNAQHVFAVAFKTGRRLLFQARGDPERDAWMQKIQQTLGIDEAD” as the sequence, how does the “soluble on expression in E. coli” value read?
The value was “soluble”.

Which “soluble on expression in E. coli” value does the source give for “MGSDKIHHHHHHMIYMIIHKFIIHVLDKNSDVPILNDFEGKVNQEVDGFFQKAIKRIAKDEDLRKGVFKDYNDNLIKNCCEQIIYDESTFLKNSKEIASYLFDVMKINAALESCDLAICLYTIKDEKSVAILKLDYKKLYTHSIEFVDDKFNIQMVSNEIGIPETLRQKQGALISLSGINDEFHLRLLDKDAEKEGSESKFVTEFLNAKKIDDDKYKTKVFKNTAENWITNALSNDIKQAEDVRSILNYTLKEKHEVDINDFVDNSIKDDELKDSFKEHMEEKGLDESFSIDKKWVEKKLKKRSIKTDNGFDIKGNLTDFEDPMKYTVKQNQDGTIDIIIKNVTFYEEK” here?
The value was “not soluble”.
